Test results: patent US20060240002A1, “Methods of inhibiting angiogenesis-dependent conditions mediated by cryptic epitopes of extracellular matrix components” (priority 2005, published 2006)

Assays:
[1] = molecular target: denatured collagen type-IV; assay: cell-based or functional assay
αvβ3 integrin (human) = αvβ3 integrin (human) (UniProt P06756); assay: cell-based or functional assay
P27^KIP1 [2] = assay: Western blot of P27^KIP1 in B16F10 melanoma cells on denatured collagen; type: cell-based, murine; conditions: 24 hours
Procedure: (§1) To examine the effect of CLK-peptide on the expression of cyclin-dependent […] P27^KIP1, B16F10 melanoma and GL261 glioblastoma cells were resuspended in adhesion buffer in the presence or absence of CLK-peptide or control peptide. Cells were added to culture plates coated with denatured collagen and allowed to incubate for 24 hours. Total cell lysates were prepared and the proteins analyzed by Western Blot analysis.

P27^KIP1 [3] = assay: Western blot of P27^KIP1 in GL261 glioblastoma cells on denatured collagen; type: cell-based; conditions: 24 hours
Procedure: as §1

P21^CIP1 = assay: Western blot of P21^CIP1 in M21 cells; type: cell-based, human; conditions: 12 hours, 1% serum-containing medium
Procedure: The effect of CLK-peptide on the expression of P21^CIP1 was examined by Western Blot analysis. M21 cells were resuspended in adhesion buffer in the presence or absence of CLK-peptide and allowed to incubate for 12 hours in 1% serum-containing medium. Total cell lysates were prepared and the levels of P21^CIP1 and actin analyzed by Western Blot analysis.

B16F10 tumor cells [4] = assay: Differential cDNA array analysis of B16F10 tumor cells treated with peptides (Example X); type: cell-based, murine; conditions: 12 hours, Example X written in present tense
Procedure: To evaluate the effect of inhibiting the HUIV26 cryptic collagen epitope using the SLK- and CLK-Peptides, an Affymetrix™-based differential cDNA array analysis is performed using B16F10 tumor cells treated or not treated with SLK- or CLK-peptide. Non-tissue culture treated dishes are coated overnight with 100 μg/ml of denatured collagen IV in PBS. The next morning the plates are washed and incubated in blocking solution (1% BSA in PBS) for approximately 30 minutes. Tumor cells (7×10^6) are resuspended in serum free media and added to each plate in the presence or absence of CLK-Peptide, SLK-Peptide or a control peptide. The cells are allowed to incubate for a total of 12 hours.
Following the 12-hour incubation period, the cells are harvested and the RNA is isolated using both a TRIzol reagent and the Qiagen Rneasy Mini Protocol for RNA Cleanup. After RNA extraction, the amount and quality of RNA is quantified utilizing a spectrophotomer. 5-8 μg of total RNA is utilized to synthesize double-stranded cDNA. The first cDNA strand is obtained using a reaction mixture containing a T7-(dT)24 Primer, 1× First Strand Buffer, 0.1M DTT and 10 mM dNTP mix in addition to the extracted RNA. The tubes are incubated at 42° C. for approximately 1.5 hours. […]

B16F10 tumor cells [5] = assay: Real time quantitative RT-PCR of B16F10 cells treated with peptides (Example X); type: cell-based, murine; conditions: vs control peptide, Example X written in present tense
Procedure: Relative expression levels of genes are assessed by both real time quantitative RT-PCR and Western Blot analysis. Tumor cells (B16F10) are allowed to interact with denatured collagen type-IV in the presence or absence of the SLK-peptide, CLK-peptide, or control peptide. Whole cell lysates are prepared from the various cell samples.
Real Time quantitative RT-PCR is carried out essentially as described with some modifications (Livak et al., Method 2001, 25:402-408). Total RNA is isolated using RNeasy miniprep columns (Qiagen, Valencia Calif.) according to the manufacturer's instructions. Total RNA (1 μg) is reverse transcribed using 1× Reverse Transcriptase Buffer, MgCl2 (3 mM), dNTP (2.0 mM), RNAse inhibitor (0.2 U/μl), random hexamer primers (0.5 mM), and MMLV reverse transcriptase (0.3 U/μl) in 20 μl reactions using a 3-step cycle (Promega, Madison, Wis.). Real-time fluorescence detection is carried out using an ABI Prism 7900 Sequence Detection System. Reactions are carried out in microAmp 96 well reaction plates. Primers and probes are designed using Primer 3 version 2 and ENSEMBL software (Promega).

B16F10 tumor cells [6] = assay: Western blot of B16F10 cells treated with peptides (Example X); type: cell-based, murine; conditions: B16F10 cells on denatured collagen type-IV; vs no treatment or control peptide; Example X written in present tense
Procedure: Western blot analyses indicate a corresponding increase in protein levels. Western blotting was performed as previously described, by coating non-tissue culture treated plates with denatured collagen type-IV (10.0 μg/ml). Equal numbers of tumor cells (B16F10) from sub-confluent cultures are harvested, washed and added to the coated plates in the presence or absence of SLK-peptide, CLK-peptide, or control peptide, and allowed to incubate in 1.0% serum-containing medium. Cells are harvested, washed, and lysed in 1.0% Triton X-100 buffer containing 300 mM NaCl, 50 mM Tris (pH 7.0) and 1× protease inhibitor cocktail. Equal amounts (25 μg/lane) of tumor cell lysates are separated by SDS Page and transferred to nitrocellulose membranes. Membranes are probed by incubation with either polyclonal antibodies directed to P21^CIP1 or Actin (Santa Cruz) as described previously (Brooks et al., Cell 1998, 92: 391-400; Petitclerc et al., Cancer Res. 1999, 59: 2724-2730). Western blots are visualized by a chemiluminesence detection system (Amersham Life Sciences).

UniProt P06756, sequence (P06756 31-1048, chain 1 of 2): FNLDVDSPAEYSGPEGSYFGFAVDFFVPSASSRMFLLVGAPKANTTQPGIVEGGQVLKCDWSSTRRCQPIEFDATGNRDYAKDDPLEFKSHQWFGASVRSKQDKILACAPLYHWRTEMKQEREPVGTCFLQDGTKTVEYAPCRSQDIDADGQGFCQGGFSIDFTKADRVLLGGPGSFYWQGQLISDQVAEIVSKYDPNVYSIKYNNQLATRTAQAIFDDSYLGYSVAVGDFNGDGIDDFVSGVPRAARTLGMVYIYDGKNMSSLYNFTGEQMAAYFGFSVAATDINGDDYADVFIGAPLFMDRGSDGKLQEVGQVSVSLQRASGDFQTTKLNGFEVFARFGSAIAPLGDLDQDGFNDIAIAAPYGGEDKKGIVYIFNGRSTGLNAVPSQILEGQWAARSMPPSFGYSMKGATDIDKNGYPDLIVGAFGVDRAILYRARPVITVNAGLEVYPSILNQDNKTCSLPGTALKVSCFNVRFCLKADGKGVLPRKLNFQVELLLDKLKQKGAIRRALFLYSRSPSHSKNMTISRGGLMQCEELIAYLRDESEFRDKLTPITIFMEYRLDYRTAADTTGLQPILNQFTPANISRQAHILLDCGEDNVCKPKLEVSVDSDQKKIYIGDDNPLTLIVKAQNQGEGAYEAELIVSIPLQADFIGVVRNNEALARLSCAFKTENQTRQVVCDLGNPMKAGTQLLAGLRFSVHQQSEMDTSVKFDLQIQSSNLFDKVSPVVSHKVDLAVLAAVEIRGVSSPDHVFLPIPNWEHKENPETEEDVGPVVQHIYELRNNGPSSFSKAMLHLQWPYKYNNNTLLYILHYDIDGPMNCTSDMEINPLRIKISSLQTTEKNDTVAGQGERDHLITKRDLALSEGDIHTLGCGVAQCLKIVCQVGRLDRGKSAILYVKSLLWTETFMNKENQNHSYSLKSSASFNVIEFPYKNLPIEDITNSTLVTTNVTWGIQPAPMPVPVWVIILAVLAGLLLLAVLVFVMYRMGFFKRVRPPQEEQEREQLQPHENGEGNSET
UniProt P06756, sequence (P05106 27-788, chain 2 of 2, further chain): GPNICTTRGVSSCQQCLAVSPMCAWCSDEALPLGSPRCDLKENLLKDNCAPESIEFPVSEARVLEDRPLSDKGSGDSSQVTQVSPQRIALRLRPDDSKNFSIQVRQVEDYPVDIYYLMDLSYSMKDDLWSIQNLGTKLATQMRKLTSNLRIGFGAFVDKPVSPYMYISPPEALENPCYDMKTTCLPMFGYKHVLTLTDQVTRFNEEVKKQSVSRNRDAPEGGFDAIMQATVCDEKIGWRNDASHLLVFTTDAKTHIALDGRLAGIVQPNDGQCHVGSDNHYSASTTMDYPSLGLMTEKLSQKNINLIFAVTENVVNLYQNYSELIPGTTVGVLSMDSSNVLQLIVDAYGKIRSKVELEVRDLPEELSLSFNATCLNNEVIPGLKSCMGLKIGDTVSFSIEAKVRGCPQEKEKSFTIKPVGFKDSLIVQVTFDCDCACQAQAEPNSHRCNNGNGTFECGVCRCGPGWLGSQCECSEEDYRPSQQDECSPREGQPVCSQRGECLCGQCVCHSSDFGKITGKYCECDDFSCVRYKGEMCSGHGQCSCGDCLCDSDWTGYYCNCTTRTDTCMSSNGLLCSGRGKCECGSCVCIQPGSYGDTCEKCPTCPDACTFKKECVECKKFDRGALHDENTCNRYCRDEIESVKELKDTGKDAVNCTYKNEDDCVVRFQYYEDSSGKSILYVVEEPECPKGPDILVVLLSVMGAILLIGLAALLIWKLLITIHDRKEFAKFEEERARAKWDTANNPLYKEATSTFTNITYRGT

Mab HUI77 (antibody)
relative level of P21^CIP1 mRNA in HUVECs (real time RT-PCR) [1]: 10 fold | relative level of P27^KIP1 mRNA in HUVECs (real time RT-PCR) [1]: > 5 fold

Mab HUIV26 (antibody)
TSP-1 mRNA levels in HUVECs (real-time PCR) [1]: 6 fold | adhesion of B16F10 cells to denatured collagen type-IV [1]: 50 % inhibition | expression of P21^CIP1 protein in B16F10 cells (Western blot) [1]: 2 fold | migration of B16F10 tumor cells on denatured collagen type-IV [1]: 50 % inhibition | relative level of P21^CIP1 mRNA in B16F10 cells (real time RT-PCR) [1]: 2.3 fold | relative levels of IGFBP-4 RNA in M21 cells (RT-PCR) [1]: 115 fold | relative levels of IGFBP-4 mRNA in HUVECs (RT-PCR) [1]: > 10 fold | relative levels of Id-1 in M21 cells (real-time PCR) (fold decrease) [1]: 2 | relative levels of TSP-1 RNA in M21 cells (real-time PCR) [1]: 7 fold

Mab LM609 (antibody)
relative level of TSP-1 in M21 cells on denatured collagen type-IV (real-time PCR) (αvβ3 integrin (human)): 8 fold

NH2—C-L-K-Q-N-G-G-N—F—S-L-G-COOH (H-CLKQNGGNFSLG-OH) [CLK-peptide]
expression of P27^KIP1 (Western blot) (P27^KIP1 [2]): significant upregulation | expression of P27^KIP1 (Western blot) (P27^KIP1 [3]): significant upregulation | expression of P21^CIP1 (Western blot) (P21^CIP1): significant upregulation | expression of certain genes (cDNA array) (B16F10 tumor cells [4]): significant increase | relative levels of certain RNAs (RT-PCR) (B16F10 tumor cells [5]): significant increase in the relative levels of certain RNAs and significant decrease in other RNAs | expression of certain proteins (Western blot) (B16F10 tumor cells [6]): significant increase in expression of certain proteins and a significant decrease in expression of other proteins

NH2—S-L-K-Q-N-G-G-N—F—S-L-C—COOH (H-SLKQNGGNFSLC-OH) [SLK-peptide]
expression of certain genes (cDNA array) (B16F10 tumor cells [4]): significant increase | relative levels of certain RNAs (RT-PCR) (B16F10 tumor cells [5]): significant increase in the relative levels of certain RNAs and significant decrease in other RNAs | expression of certain proteins (Western blot) (B16F10 tumor cells [6]): significant increase in expression of certain proteins and a significant decrease in expression of other proteins
